Assays:
[1] = biological target: human α-CGRP K35A (19-37) (human); assay: Biacore 25 C, Fab over peptide on SA chip; KD ratio to parent 19-37
[2] = biological target: human α-CGRP P29A (25-37) (human); assay: Biacore 25 C, Fab over peptide on SA chip; KD ratio to parent 25-37
[3] = biological target: human α-CGRP V32A (25-37) (human); assay: as above
[4] = biological target: human α-CGRP S34A (25-37) (human); assay: as above
[5] = biological target: human α-CGRP T30A (25-37) (human); assay: as above
[6] = biological target: human α-CGRP N31A (25-37) (human); assay: as above
[7] = biological target: human α-CGRP F27A (25-37) (human); assay: as above
[8] = biological target: human α-CGRP V28A (25-37) (human); assay: as above
[9] = biological target: human α-CGRP G33A (25-37) (human); assay: as above

anti-CGRP antibody 4901, Fab fragment
KD (mutant/parent) [1]: 0.3 | KD (mutant/parent) [2]: 0.2 | KD (mutant/parent) [3]: 0.9 | KD (mutant/parent) [4]: 0.8 | KD (mutant/parent) [5]: 0.2 | KD (mutant/parent) [6]: 0.3 | KD (mutant/parent) [7]: 0.8 | KD (mutant/parent) [8]: 0.8 | KD (mutant/parent) [9]: 1.3

— US20200331991A1
